Test system: Erk1/2 phosphorylation in healthy keratinocytes
Assay: Western blot of Erk1/2 phosphorylation in healthy keratinocytes (IL-22)
Type: cell-based, human
Settings: IL-22 time course, no peptide, n = 3
Description: Figure 5 KIR-ESS peptide inhibits IL-22-induced phosphorylation of STAT3 and Erk in healthy and SCC-derived keratinocytes (A) Protein extracts obtained from healthy keratinocytes (n = 3) pre-treated or not with 15 μM (left panel) or 75 μM (right panel), KIR, KIR-ESS and control (Ctrl1 or Ctrl2) peptides, and, then, […], were subjected to WB analysis to detect STAT3 (Tyr705), Erk and MEK phosphorylation. Filters were probed with anti-STAT3, -Erk and –MEK Abs (top). (B) Protein extracts obtained from healthy keratinocytes (n = 3) pre-treated or not with 75 μM KIR-ESS and control (Ctrl1) peptides, and, then, stimulated or not with IL-22 for 10 min, were subjected to immunoprecipitation for IL-22R1 and Jak1, and then analysed by WB to detect phosphorylated and unphosphorylated forms of the proteins. (C) Unphosphorylated and phosphorylated forms of STAT1 (Tyr701) and STAT3 (Tyr705) were monitored in keratinocytes treated with IFN-γ for 15 min by WB analysis (bottom). In all experimental groups, filters were stripped and re-probed with β-actin Ab. (D) Protein extracts were obtained from CAL27 (left panel) or CAL33 (right panel) lines treated or not with 75 μM peptides in presence of IL-22 or IFN-γ. WB was performed to detect basal and phosphorylated STAT1, STAT3 and Erk. D.I. ratio indicates the densitometric intensity of phosphorylated/unphosphorylated target protein. […]

B1: IL-22: cytokine stimulus, R&D Systems (protein, UniProt Q9GZX6 34-179, looked up)
Interleukin-22: APISSHCRLDKSNFQQPYITNRTFMLAKEASLADNNTDVRLIGEKLFHGVSMSERCYLMKQVLNFTLEEVLFPQSDRFQPYMQEVVPFLARLSNRLSTCHIEGDDLHIQRNVQKLKDTVKKLGESGEIKAIGELDLLFMSLRNACI
Q: With B1 as the molecule, how does the Erk1/2 activation read?
A: culminated with STAT3, MEK1/2 and Erk1/2 activation
